Measured values taken from paper PMC12494544 (The Journal of Biological Chemistry, 2025).

Biological target: the molecule itself
Assay: crystal structure; PseM (28-186) at 27 mg/ml; 0.1 M Mes monohydrate pH 7.0, 2.0 M NaCl, 1% benzamidine-HCl, 291 K; SAD, 2.0 Å, space group P4(3)2(1)2; homodimer in the asymmetric unit

B1: N-terminal-truncated PseM (residues from 28 to 186) (enzyme)
chain: STGDYWIVYGKGERYNNEVFVANATGILQQPKGIQSAQIIQLFEDRSMPTLTAYEVQFKCKERRVRFDNARAMRRIDNVITNVKTVDGWIDPEKYDYWLQRSFAFVCAPAIRDNNQMLPLGKMPIARMVQTVQAMFVELQGVQAKKQTMRDLDAMLGNE
notes: PseM (PA0989), P. aeruginosa, residues 28 to 186, without the N-terminal signal peptide
  stoichiometry N: 2
